Tested on: type II diabetic mice (C57BL/Ks-Lepr db/db)
Experiment: In vivo bioactivity in type II diabetic mice
Settings: 5 μg peptide s.c. twice a day, day 2, 4, 7, 10
Protocol: 11-week-old type II diabetic mice (C57BL/Ks-Lepr^db/db, Harlan) were treated with 5 μg peptide by subcutaneous injection twice a day at 9 a.m. and 5 p.m. (n=5 per group). Blood glucose was measured before (day 0) and after treatment with GLP^CM peptides (Day 2, 4, 7, 10) at 10 a.m. after an overnight fastening period. Data were presented in relation to blood glucose levels measured at day 0.
Best results were obtained with recombinant SEQ ID NO:6 (CM1) and synthetic SEQ ID NO:8 (CM3). In FIG. 9 (y-axis) the relative effect of the treatment is shown. Blood glucose at day ═O was set to 1. Untreated animals undergo continuous increase in blood glucose level over time, whereas animals treated with inventive peptides display grosso modo a continuous decrease of the blood glucose level over time.

B1: GLP-1(7-37)—IP2-RR-GLP2 (peptide)
chain: HAEGTFTSDVSSYLEGQAAKEFIAWLVKGRGRRDFPEEVAIAEELGRRHADGSFSDEMSTILDNLATRDFINWLIQTKITDKK
notes: 83 aa fusion peptide
anti-hyperglycemia effect (blood glucose relative to day 0): anti-hyperglycemia effect

From US20100160556A1, “GLP-1 Fusion Peptides Conjugated to Polymer(s), Their Production and Use” (priority 2007, published 2010)
